# ± gives the standard deviation of the averaged measurements.
# System: Saccharomyces cerevisiae
# Experiment: protein stability index of tFT-peptide fusion (C-terminal peptide) (PSI (0-1 scale)); higher = more stable (slower turnover)
# Conditions: temperature: 30 C
# Experimental: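 MPS profiling in S. cerevisiae of the yeast C-terminome library: the last 12 aa of each annotated ORF are fused to the C-terminus of a sfGFP-mCherry timer, after a GGGS linker. Cells are FACS-sorted into 8 mCherry/sfGFP bins and deep-sequenced. PSI runs from 0 (unstable) to 1 (stable); wild type and das1Δ backgrounds, two technical replicates each.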
# [1] = genetic background: das1 deletion
Sequence,protein stability index [1],protein stability index (genetic background: wild type)
RDAEILAKIAKD [HSP10 C-terminal 12 aa],0.683 ± 0.021,0.677 ± 0.0077
RLSMLRPPSSSS [RSC2 C-terminal 12 aa],0.7185 ± 0.0066,0.7059 ± 0.0021
WAVGGVELTTDI [GCN1 C-terminal 12 aa],0.76 ± 0.021,0.705 ± 0.026
SIYILNVIRNAQ [YGR117C C-terminal 12 aa],0.6687 ± 0.0012,0.538 ± 0.0088
FSIVALEVWRVG [OXR1 C-terminal 12 aa],0.552 ± 0.013,0.567 ± 0.022
VWADILNKLGKD [ADK1 C-terminal 12 aa],0.704 ± 0.013,0.719 ± 0.025
VDVLKLNDPTRH [BCY1 C-terminal 12 aa],0.716 ± 0.031,0.706 ± 0.042
YFVNNIIVRIQS [YKL118W C-terminal 12 aa],0.559 ± 0.009,0.329 ± 0.028
LLYLYDNDHTST [GPI19 C-terminal 12 aa],0.72 ± 0.058,0.6907 ± 0.0034
YNLKNDILTNLE [SWI1 C-terminal 12 aa],0.73 ± 0.021,0.651 ± 0.044
QIILQKEGVLDK [KCC4 C-terminal 12 aa],0.704 ± 0.0035,0.672 ± 0.0083
GARIGLQGYKSH [YNL184C C-terminal 12 aa],0.70081 ± 0.00013,0.688 ± 0.015
IEVGNGASVLIQ [TRS65 C-terminal 12 aa],0.692 ± 0.01,0.691 ± 0.023
QLNLVVNGVRLN [YLR379W C-terminal 12 aa],0.674 ± 0.021,0.655 ± 0.016
ARGCCEVTSKRF [YGL188C C-terminal 12 aa],0.683 ± 0.011,0.676 ± 0.0099
GEKKQKGQALQF [RPL42A C-terminal 12 aa],0.68 ± 0.025,0.662 ± 0.051
VLSFNPKVWLLV [YAR068W C-terminal 12 aa],0.562 ± 0.0081,0.0978 ± 0.0096
ANEMADELSRYL [IRC6 C-terminal 12 aa],0.724 ± 0.019,0.7344 ± 0.0047
AHNFKVPETSKG [PAN2 C-terminal 12 aa],0.696 ± 0.032,0.677 ± 0.022
KVTFINIEINYR [YGR064W C-terminal 12 aa],0.57 ± 0.02,0.591 ± 0.03
NRVVLVDHNSSS [IRS4 C-terminal 12 aa],0.72 ± 0.024,0.727 ± 0.069

Sequence,protein stability index [1],protein stability index (genetic background: wild type)
HGNVFHIESICG [YLL047W C-terminal 12 aa],0.655 ± 0.053,0.737 ± 0.031
KQLDLKHMLEMH [MRPL44 C-terminal 12 aa],0.7 ± 0.0085,0.6897 ± 0.0057
NEPTNSDIVELD [UBA2 C-terminal 12 aa],0.693 ± 0.023,0.676 ± 0.019
NTESSCGFFQWV [APN2 C-terminal 12 aa],0.72737 ± 0.00023,0.737 ± 0.02
KKIIKKKDFYHR [YOR011W-A C-terminal 12 aa],0.728 ± 0.015,0.706 ± 0.04
GKKGQHVGCCVC [YFL066C C-terminal 12 aa],0.722 ± 0.0084,0.691 ± 0.046
DTVVRLIDNIVI [PAN6 C-terminal 12 aa],0.6896 ± 0.0041,0.702 ± 0.07
DNDIYNTISEVR [RAD9 C-terminal 12 aa],0.697 ± 0.022,0.727 ± 0.024
DFIRGVAVFMHI [YMR272W-A C-terminal 12 aa],0.691 ± 0.02,0.66587 ± 0.00052
SKTSHNPNEQSV [PDR11 C-terminal 12 aa],0.6953 ± 0.0037,0.687 ± 0.025
SIDQFRGKLNSI [URA1 C-terminal 12 aa],0.701 ± 0.015,0.688 ± 0.013
VNGELKYVKPED [AFT1 C-terminal 12 aa],0.6945 ± 0.0046,0.6909 ± 0.0017
GAALMALLGKWA [ZRT2 C-terminal 12 aa],0.725 ± 0.021,0.6381 ± 0.0041
ILSWYFLETVAV [YMR254C C-terminal 12 aa],0.317 ± 0.024,0.34 ± 0.018
EALTKASNVNKL [CIT3 C-terminal 12 aa],0.6972 ± 0.0031,0.65 ± 0.041
ARGRRRSKGFKV [RPL18A C-terminal 12 aa],0.722 ± 0.03,0.696 ± 0.016
REWFDIELNFSK [PMT4 C-terminal 12 aa],0.7467 ± 0.0068,0.73 ± 0.024
KVGNDHMELKKE [TFG1 C-terminal 12 aa],0.699 ± 0.013,0.671 ± 0.035
MYSSKDNPASPK [TAF1 C-terminal 12 aa],0.693 ± 0.021,0.674 ± 0.017
SAQRDRRYRKRN [RPS17B C-terminal 12 aa],0.721 ± 0.049,0.649 ± 0.018
